Results on 14 molecules are retold here after patent US20230203134A1 (TRUSTEES OF COLUMBIA UNIVERSITY IN THE CITY OF NEW YORK, published 2023).

Sequences and labels used below:
B1: monoclonal antibody 2-30 (antibody, V domains shown)
VH: QVQLVESGGGVVQPGRSLRLSCAASGFTFSSYTMHWVRQAPGKGLEWVAAISYDGNNKYYADSVKGRFTISRDNSKNTLYLQMNSLRAEDTAVYYCARSILYGGGMDVWGQGTTVTVSS
VL: DIQLTQSPSSLSASVGDRVTITCRASQGISSYLAWYQQKPGQAPKLLIYAASTLQSGVPSRFSGSGSGTDFTLTISSLQPEDFATYYCQQLNSYPLTFGGGTKVEIK
notes: also called mAb 2-30; antibody number 2-30
B2: monoclonal antibody 2-51 (antibody, V domains shown)
VH: QVQLVQSGAEVKKPGASVKVSCKVSGYTLIELSMHWVRQAPGKGLEWMGGFDPEDVETIYAQQFQGRVTMTEDTSTDTAYMELSSLRSEDTAVYYCATGWAYKSTWYFGYWGQGTLVTVSS
VL: QSALTQPPSASGSPGQSVTISCTGTSSDVGGYNYVSWYQQHPGKAPKLMIYEVSKRPSGVPDRFSGSKSGNTASLTVSGLQAEDEADYYCSSYAGSRMGFGGGTKLTVL
notes: also called mAb 2-51; antibody number 2-51
B3: monoclonal antibody 2-43 (antibody, V domains shown)
VH: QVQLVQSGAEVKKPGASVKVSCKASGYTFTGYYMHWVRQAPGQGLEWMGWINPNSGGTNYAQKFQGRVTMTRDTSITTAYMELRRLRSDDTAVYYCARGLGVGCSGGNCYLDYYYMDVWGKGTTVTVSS
VL: QSALTQPASVSGSPGQSITISCTGTSSDVGGYNYVSWYQQHPGKAPKLMIYDVSKRPSGVSNRFSGSKSGNTASLTISGLQAEDEGDYYCSSYTSSSTWVFGGGTKLTVL
notes: also called mAb 2-43; monoclonal Ab 2-43
B4: monoclonal antibody 4-20 (antibody, V domains shown)
VH: QVQLLQSGAEVKKPGASVKVSCKASGYSFTSYYMHWVRQAPGQGLEWMGIINPSGGGTTYAQKFQGRVTMTRDTSTSTVYMELSSLRSEDTAVYYCARPGGGSYQEFDYWGQGTLVTVSS
VL: DIQMTQSPSSLSASVGDRVTITCRASQSISSYLNWYQQKPGKAPKLLISAASSLQSGVPSRFSGSGSGTDFTLTISSLQPEDFATYYCQQSYNTLQVTFGGGTKVEIK
notes: also called mAb 4-20; antibody number 4-20
B5: monoclonal antibody 2-17 (antibody, V domains shown)
VH: QVQLVQSGAEVKKPGSSVKVSCKASGGTFSSYAISWVRQAPGQGLEWMGGNIPIFGTANYAQKFQGRVTITADESTSTAYMELSSLRSEDTAVYYCARGVGYRGVIPLNWFDPWGQGTVVTVSS
VL: EIVMTQSPATLSVSPGERATLSCRASQSVSSDLAWYQHKPGQAPRLLIYGASTRATGIPVRFSGSGSGTEFTLTISSLQSEDFAVYYCQQYNNWPPFTFGGGTKVEIK
notes: also called mAb 2-17; antibody number 2-17
B6: monoclonal antibody 1-87 (antibody, V domains shown)
VH: QVQLVQSGAEVKKPGASVKVSCKVSGYTLIELSMHWVRQAPGKGLEWMGGFDPEDAETIYAQKFQGRVTMTEDTSTDTAYMELSSLRSEDTAVYYCATGIAVIGPPPSTYYYYGMDVWGQGTTVTVSS
VL: QSALTQPASVSGSPGQSITISCTGTSSDVGGYNYVSWYQQHPGKAPKLMIYDVSKRPSGVSNRFSGSKSGNTASLTISGLQAEDEADYYCSSYTSSSTYVFGTGTKVTVL
notes: also called mAb 1-87; antibody number 1-87
B7: monoclonal antibody 5-7 (antibody, V domains shown)
VH: QVQLVQSGAEVKKPGASVKVSCKASGYTFTSYYMHWVRQAPGQGLEWMGVINPSGGSTSYAEKFRGRVTMTRDTSTSTVYMELSSLRSEDTAVYYCARDREPHSDSSGYWDSLKYYYYYALDVWGQGTTVTVSS
VL: AIQLTQSPSSLSASVGDRVTITCRASQGISSYLAWYQQKPGKAPELLIYAASTLQSGVPSRFSGSGSGTDFTLTISSLQPEDFATYYCQQLNTYPFTFGPGTKVDIK
notes: also called mAb 5-7; antibody number 5-7
B8: monoclonal antibody 1-68 (antibody, V domains shown)
VH: QVQLVQSGAEVKKPGASVKVSCKVSGYTLIELSMHWVRQAPGKGLEWMGGFDPEDAETIYAQKFQGRVTMTEDTSTDTAYMELSSLRSEDTAVYYCATGWAVAGSSDVWYYYYGMDVWGQGTTVTVSS
VL: QSALTQPPSVSGSPGQSVTISCTGTSSDVGSYNRVSWYQQPPGTAPKLMIYEVSNRPSGVPDRFSGSKSGNTASLTISGLQAEDEADYYCSSYTSSSTYVFGTGTKVTVL
notes: also called mAb 1-68; antibody number 1-68
B9: monoclonal antibody 4-18 (antibody, V domains shown)
VH: QVQLVESGGGVVQPGRSLRLSCAASGFTFSSYGMHWVRQAPGKGLEWVAVISYDGSNKHYADSVKGRFTISRDNSKNTLYLQMNSLRAEDTAVYYCAKDSGYNYGYSWFDPWGQGTLVTVSS
VL: SYELTQPPSVSVSPGQTARITCSADALAKQYAYWYQQKPGQAPVLVIYKDSERPSGIPERFSGSSSGTTVTLTISGVQAEDEADYYCQSTDNSGTYPNWVFGGGTKLTVL
notes: also called mAb 4-18; antibody number 4-18
B10: monoclonal antibody 2-4 (antibody, V domains shown)
VH: QVQLVQSGAEVKKPGASVKVSCKASGYTFTGYYMHWVRQAPGQGLEWMGWINPNSGGTNYTQMFQGRVTMTRDTSISTAYMEVSRLRSDDTAVYYCARDRSWAVVYYYMDVWGKGTTVTVSS
VL: QSALTQPPSASGSPGQSVTISCTGTSSDVGGYNYVSWYQQHPGKAPKLMIYEVSKRPSGVPDRFSGSKSGNTASLTVSGLQAEDEADYYCSSYAGSNNLVFGGGTKLTVL
notes: also called mAb 2-4; antibody number 2-4
B11: monoclonal antibody 2-7 (antibody, V domains shown)
VH: QITLKESGPTLVKPTQTLTLTCTFSGFSLSTSGVGVGWIRQPPGKALEWLALIYWDDDKRYSPSLKSRLTITKDTSKNQVVLTMTNMDPVDTATYYCAHHKIERIFDYWGQGTLVTVSS
VL: QSALAQPASVSGSPGQSITISCTGTSSDVGAYNYVSWYQQHPGKAPKLMIYDVSKRPSGVSNRFSGSKSGNTASLTISGLQAEDEADYYCSSYTTSSTVFGGGTKLTVL
notes: also called mAb 2-7; antibody number 2-7
B12: monoclonal antibody 1-20 (antibody, V domains shown)
VH: EVQLVESGGGLIQPGGSLRLSCAASGLTVSSNYMSWVRQAPGKGLEWVSVIYSGGSTFYADSVKGRFTISRDNSKNTLYLQMNSLRAEDTAVYYCARDLFYYGMDVWGQGTTVTVSS
VL: DIQLTQSPSFLSASVGDRVTITCRASQGISSYLAWYQQKPGKAPKLLIYAASTLQSGVPSRFSGSGSGTEFTLTISSLQPEDFATYYCQQLNSYPCFGPGTKVDIK
notes: also called mAb 1-20; antibody number 1-20
B13: monoclonal antibody 2-38 (antibody, V domains shown)
VH: EVQLVESGGGLVKPGGSLRLSCAASGFTFSSYSMNWVRQAPGKGLEWVSSISSSSSYIYYADSVKGRFTISRDNAKNSLYLQMNSLRAEDTAVYYCTRAGWELRLDAFDIWGQGTMVTVSS
VL: SSELTQDPAVSVALGQTVRITCQGDSLRSSYASWYQQKPGQAPILVIYDKNNRPSGIPDRFSGSSSGNTASLTITGAQAEDEADYYCNSRDSSGILFGGGTKLTVL
notes: also called mAb 2-38; antibody number 2-38
B14: monoclonal antibody 2-15 (antibody, V domains shown)
VH: QVQLVQSGAEVKKPGASVRVSCKASGYTFTGYYMHWVRQAPGQGLEWMGWINPISDGTNYAQKFQGWVTMTRDTSISTVYMELSRLRSDDTAVYYCARGGSRCSGGNCYGWAYDAFDIWGQGTMITVSS
VL: QSALTQPASVSGSPGQSITISCTGTSSDVGGYNFVSWYQQHPGKAPKLMIYDVSKRPSGVSNRFSGSKSGNTASLTISGLQAEDEADCYCSSYTSSSTFVFGTGTKVTVL
notes: also called mAb 2-15; antibody number 2-15

For one experiment, the target named is T1, SARS-CoV-2 N-terminal domain (NTD) (SARS-CoV-2, UniProt P0DTC2 14-290).
T1 construct: range 1-290
The experiment can be described thus: ELISA. A general note: ELISA stands for enzyme-linked immunosorbent assay.
In the case of B1, the binding result was “no binding”.
Same read-out and setting: the entry for B2 is “no binding”.
The same measure, in the same setting: the entry for B3 is “no binding”; for B4 it is “no binding”.

Another experiment deals with T1, SARS-CoV-2 N-terminal domain (NTD). The experiment can be described thus: quantitative ELISA (FIG. 16C, F, I).
As to B5, the binding result is given as “binds”.
The same measure, in the same setting: the entry for B6 is “binds”.

For another experiment the target is unchanged. The experiment in a line: ELISA (FIG. 10D-F).
In the case of B7, the binding result is listed as “binds”.
Same read-out and setting: the entry for B8 is “binds”; for B9 it is “binds”.

For another experiment the target is unchanged. The experiment in a line: quantitative ELISA.
For B10, the binding result is recorded as “no binding”.
The same measure, in the same setting: the same measure for B11: “no binding”.
The same measure, in the same setting: the entry for B12 is “no binding”; for B13 it is “no binding”.
Same read-out and setting: the same measure for B14: “no binding”.
